Columns and labels:
CD28 (human) = CD28 (human) (UniProt P10747); assay: cell-based or functional assay
PD-L1 (human) = PD-L1 (human) (UniProt Q9NZQ7); assay: cell-based or functional assay
Sequence of PD-L1 (human) (Q9NZQ7 19-290): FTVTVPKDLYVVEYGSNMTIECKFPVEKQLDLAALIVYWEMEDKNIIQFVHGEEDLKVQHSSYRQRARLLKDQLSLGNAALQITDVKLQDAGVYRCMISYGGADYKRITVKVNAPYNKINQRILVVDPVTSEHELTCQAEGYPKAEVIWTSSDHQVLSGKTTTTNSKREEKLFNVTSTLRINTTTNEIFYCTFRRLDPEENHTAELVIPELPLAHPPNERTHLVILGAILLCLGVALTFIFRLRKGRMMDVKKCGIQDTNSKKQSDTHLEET

Sequence of WT CD80 IgV-Fc (inert) (Fc fusion) (chain): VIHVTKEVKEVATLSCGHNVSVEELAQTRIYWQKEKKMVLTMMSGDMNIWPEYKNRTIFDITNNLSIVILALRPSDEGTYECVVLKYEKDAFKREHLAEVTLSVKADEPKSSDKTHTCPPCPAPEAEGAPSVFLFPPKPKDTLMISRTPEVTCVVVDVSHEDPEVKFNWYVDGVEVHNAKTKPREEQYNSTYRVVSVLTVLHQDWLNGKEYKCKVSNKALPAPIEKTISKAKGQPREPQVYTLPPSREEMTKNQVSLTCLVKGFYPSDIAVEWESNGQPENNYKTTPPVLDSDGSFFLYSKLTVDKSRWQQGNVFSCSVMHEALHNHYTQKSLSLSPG
Sequence of WT CD80 ECD-Fc (inert) (Fc fusion) (chain): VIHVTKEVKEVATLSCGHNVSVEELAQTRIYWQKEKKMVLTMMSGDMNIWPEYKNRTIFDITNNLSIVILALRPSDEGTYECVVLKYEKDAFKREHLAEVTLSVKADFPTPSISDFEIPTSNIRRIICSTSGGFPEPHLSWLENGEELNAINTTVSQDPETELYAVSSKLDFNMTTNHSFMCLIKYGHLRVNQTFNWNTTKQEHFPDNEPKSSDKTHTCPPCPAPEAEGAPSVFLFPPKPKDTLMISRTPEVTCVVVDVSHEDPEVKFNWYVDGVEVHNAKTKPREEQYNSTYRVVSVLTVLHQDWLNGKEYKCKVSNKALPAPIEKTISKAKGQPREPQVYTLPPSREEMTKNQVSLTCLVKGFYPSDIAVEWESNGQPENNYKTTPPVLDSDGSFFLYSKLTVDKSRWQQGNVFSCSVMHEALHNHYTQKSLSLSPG

| IL-2-luciferase RLU, Jurkat + CHO/OKT3/PD-L1 aAPC, 0.6 nM (CD28 (human)) [RLU] | IL-2-luciferase RLU, Jurkat + CHO/OKT3/PD-L1 aAPC, 1.9 nM (CD28 (human)) [RLU] | IL-2-luciferase RLU, Jurkat + CHO/OKT3/PD-L1 aAPC, 5.6 nM (CD28 (human)) [RLU] | IL-2-luciferase RLU, Jurkat + CHO/OKT3 aAPC (no PD-L1), 5.6 nM (CD28 (human)) [RLU] | IL-2-luciferase RLU, Jurkat + CHO/OKT3 aAPC (no PD-L1), 16.7 nM (CD28 (human)) [RLU] | IL-2-luciferase RLU, Jurkat + CHO/OKT3 aAPC (no PD-L1), 50 nM (CD28 (human)) [RLU] | IL-2 release, primary T cells; K562/OKT3/PD-L1; 10 nM (PD-L1 (human)) | IL-2 release, primary T cells; K562/OKT3 (No PD-L1); 1 nM (CD28 (human)) | IL-2 release, primary T cells; K562/OKT3 (No PD-L1); 10 nM (CD28 (human)) | IL-2 release, primary T cells; K562/OKT3 (No PD-L1); 100 nM (CD28 (human)) | RLU, Jurkat/IL2 reporter; K562/OKT3 aAPC, FcR Dependent Cross-Linking (No PD-L1); 0.6 nM (CD28 (human)) [RLU] | RLU, Jurkat/IL2 reporter; K562/OKT3 aAPC, FcR Dependent Cross-Linking (No PD-L1); 1.9 nM (CD28 (human)) [RLU] | RLU, Jurkat/IL2 reporter; K562/OKT3 aAPC, FcR Dependent Cross-Linking (No PD-L1); 5.6 nM (CD28 (human)) [RLU] | RLU, Jurkat/IL2 reporter; K562/OKT3 aAPC, FcR Dependent Cross-Linking (No PD-L1); 16.7 nM (CD28 (human)) [RLU] | RLU, Jurkat/IL2 reporter; K562/OKT3 aAPC, FcR Dependent Cross-Linking (No PD-L1); 50 nM (CD28 (human)) [RLU] | RLU, Jurkat/IL2 reporter; K562/OKT3/PD-L1 aAPC, Combination of FcR and/or PD-L1 Dependent Cross-Linking; 0.6 nM (PD-L1 (human)) [RLU] | RLU, Jurkat/IL2 reporter; K562/OKT3/PD-L1 aAPC, Combination of FcR and/or PD-L1 Dependent Cross-Linking; 1.9 nM (PD-L1 (human)) [RLU] | RLU, Jurkat/IL2 reporter; K562/OKT3/PD-L1 aAPC, Combination of FcR and/or PD-L1 Dependent Cross-Linking; 5.6 nM (PD-L1 (human)) [RLU] | RLU, Jurkat/IL2 reporter; K562/OKT3/PD-L1 aAPC, Combination of FcR and/or PD-L1 Dependent Cross-Linking; 16.7 nM (PD-L1 (human)) [RLU] | RLU, Jurkat/IL2 reporter; K562/OKT3/PD-L1 aAPC, Combination of FcR and/or PD-L1 Dependent Cross-Linking; 50 nM (PD-L1 (human)) [RLU] | Substance | other results |
| --- | --- | --- | --- | --- | --- | --- | --- | --- | --- | --- | --- | --- | --- | --- | --- | --- | --- | --- | --- | --- | --- |
| 1000 | 1640 | 2350 | 549 | 544 | 600 | 6980 | – | – | – | – | – | – | – | – | – | – | – | – | – | variant CD80 IgV-Fc (inert) E35D/M47I/L70M (Fc fusion) | IL-2-luciferase RLU, Jurkat + CHO/OKT3/PD-L1 aAPC, 16.7 nM (CD28 (human)): 2630 RLU; IL-2-luciferase RLU, Jurkat + CHO/OKT3/PD-L1 aAPC, 50 nM (CD28 (human)): 2630 RLU; IL-2 release, primary T cells; K562/OKT3/PD-L1; 1 nM (PD-L1 (human)): 311; IL-2 release, primary T cells; K562/OKT3/PD-L1; 100 nM (PD-L1 (human)): 8390 |
| – | – | – | – | – | – | – | 15700 | 26000 | 25300 | 1610 | 2520 | 4230 | 5370 | 5780 | 2240 | 2690 | 3650 | 3910 | 3870 | variant CD80 IgV-Fc (effector) E35D/M47I/L70M (Fc fusion) | – |
| 1040 | 1730 | 2580 | 633 | 731 | 817 | 2700 | – | – | – | – | – | – | – | – | – | – | – | – | – | variant CD80 IgV-Fc (inert) E35D/M47L (Fc fusion) | IL-2-luciferase RLU, Jurkat + CHO/OKT3/PD-L1 aAPC, 16.7 nM (CD28 (human)): 3070 RLU; IL-2 release, primary T cells; K562/OKT3/PD-L1; 1 nM (PD-L1 (human)): 268; IL-2 release, primary T cells; K562/OKT3/PD-L1; 100 nM (PD-L1 (human)): 7530 |
| – | – | – | – | – | – | – | 14300 | 21500 | 25400 | 1880 | 2720 | 4400 | 6020 | 7020 | 1420 | 2430 | 3310 | 3640 | 4130 | variant CD80 IgV-Fc (effector) E35D/D46V/L85Q (Fc fusion) | – |
| – | – | – | – | – | – | – | – | 15100 | 21300 | 1820 | 2590 | 4130 | 5550 | 7110 | – | 1540 | 2520 | 3640 | 4030 | variant CD80 IgV-Fc (effector) A71D/L72V/E95K (Fc fusion) | – |
| 456 | 465 | 625 | 412 | 480 | 448 | 210 | – | – | – | – | – | – | – | – | – | – | – | – | – | variant CD80 IgV-Fc (inert) E35D (Fc fusion) | IL-2-luciferase RLU, Jurkat + CHO/OKT3/PD-L1 aAPC, 16.7 nM (CD28 (human)): 995 RLU; IL-2-luciferase RLU, Jurkat + CHO/OKT3/PD-L1 aAPC, 50 nM (CD28 (human)): 1610 RLU; IL-2 release, primary T cells; K562/OKT3/PD-L1; 100 nM (PD-L1 (human)): 2740 |
| – | – | – | – | – | – | – | 7170 | 7120 | 6200 | 1410 | 1350 | 1310 | 1210 | 1250 | 662 | 674 | 697 | 673 | 663 | WT CD80 IgV-Fc (effector) (Fc fusion) | – |
| – | – | – | – | – | – | – | 14600 | 23600 | 26800 | 2120 | 3040 | 5620 | 7740 | 8680 | 2780 | 3850 | 4730 | 5410 | 5040 | variant CD80 IgV-Fc (effector) E35D/M47L (Fc fusion) | – |
| – | – | – | – | – | – | – | 11100 | 21600 | 27200 | 1780 | 2130 | 3650 | 5790 | 7140 | 2830 | 3600 | 4700 | 5320 | 5700 | variant CD80 IgV-Fc (effector) E35D/M47I (Fc fusion) | – |
| – | – | – | – | – | – | 3110 | 11400 | 20200 | 23100 | – | – | – | – | – | – | – | – | – | – | WT CD80 ECD-Fc (effector) (from UniProt P33681 35-242) (Fc fusion) | IL-2 release, primary T cells; K562/OKT3/PD-L1; 1 nM (PD-L1 (human)): 507; IL-2 release, primary T cells; K562/OKT3/PD-L1; 100 nM (PD-L1 (human)): 8390 |
| – | – | – | – | – | – | 143 | 7040 | 6340 | 5510 | 1400 | 1390 | 1390 | 1370 | 1370 | 689 | 675 | 666 | 694 | 679 | Fc only Control (inert Fc) (from UniProt P0DOX5 218-448) | – |
| 458 | 486 | 511 | 450 | 444 | 479 | – | – | – | – | – | – | – | – | – | – | – | – | – | – | WT CD80 IgV-Fc (inert) (Fc fusion) | IL-2-luciferase RLU, Jurkat + CHO/OKT3/PD-L1 aAPC, 50 nM (CD28 (human)): 483 RLU; IL-2-luciferase RLU, Jurkat + K562/OKT3/PD-L1 aAPC, 50 nM (CD28 (human)): 566 RLU; IL-2 release, primary T cells; K562/OKT3/PD-L1; 100 nM (PD-L1 (human)): 52 |
| 518 | 474 | 505 | 436 | 412 | 420 | – | 8050 | 7020 | 6480 | 1340 | 1270 | 1480 | 1730 | 2200 | 692 | 705 | 847 | 875 | 1520 | WT CD80 ECD-Fc (inert) (Fc fusion) | IL-2-luciferase RLU, Jurkat + CHO/OKT3/PD-L1 aAPC, 16.7 nM (CD28 (human)): 462 RLU |

Source: patent US20210130436A1
